Results reported in publication PMC12990809.

Key:
Test in all cases: pulldown
Conditions in all cases: 20 nM protein, 1.5 uM RNA pool; 20 mM HEPES pH 7.8, 70 mM KCl, 10 mM NaCl, 10% glycerol, 2 mM DTT, 0.1 ug/uL BSA; 30 min, 4 C
[1] = target: T1, PK16782.1 E6F;T7E (Cannabis sativa) (UniProt A0A7J6H871)
T1 sequence: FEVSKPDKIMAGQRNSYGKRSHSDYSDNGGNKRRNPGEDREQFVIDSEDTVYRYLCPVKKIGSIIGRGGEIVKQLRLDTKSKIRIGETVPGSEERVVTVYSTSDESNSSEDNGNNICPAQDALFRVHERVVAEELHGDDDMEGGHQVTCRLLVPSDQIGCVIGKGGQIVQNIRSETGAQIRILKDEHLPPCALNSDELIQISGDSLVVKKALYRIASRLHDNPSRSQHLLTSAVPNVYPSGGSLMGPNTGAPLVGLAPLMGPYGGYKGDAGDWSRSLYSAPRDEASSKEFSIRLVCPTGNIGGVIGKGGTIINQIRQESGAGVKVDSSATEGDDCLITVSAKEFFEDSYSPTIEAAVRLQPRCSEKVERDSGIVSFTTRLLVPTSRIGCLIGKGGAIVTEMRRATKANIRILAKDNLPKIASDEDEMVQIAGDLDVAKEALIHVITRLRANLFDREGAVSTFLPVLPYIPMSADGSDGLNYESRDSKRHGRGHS

[2] = target: T2, B0280.17 (Caenorhabditis elegans) (UniProt Q2V4X2)
T2 sequence: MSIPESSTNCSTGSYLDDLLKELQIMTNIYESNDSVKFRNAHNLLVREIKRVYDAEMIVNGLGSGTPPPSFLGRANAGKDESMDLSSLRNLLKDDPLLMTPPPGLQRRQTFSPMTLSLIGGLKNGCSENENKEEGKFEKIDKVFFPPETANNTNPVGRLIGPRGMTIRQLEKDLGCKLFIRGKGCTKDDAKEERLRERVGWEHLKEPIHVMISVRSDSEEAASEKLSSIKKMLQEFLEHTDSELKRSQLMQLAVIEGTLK

[3] = target: fmr1 (Xenopus tropicalis) (UniProt Q6GLC9)
[4] = target: T3, PK00513.1 (Cannabis sativa) (UniProt A0A7J6DZZ3)
T3 sequence: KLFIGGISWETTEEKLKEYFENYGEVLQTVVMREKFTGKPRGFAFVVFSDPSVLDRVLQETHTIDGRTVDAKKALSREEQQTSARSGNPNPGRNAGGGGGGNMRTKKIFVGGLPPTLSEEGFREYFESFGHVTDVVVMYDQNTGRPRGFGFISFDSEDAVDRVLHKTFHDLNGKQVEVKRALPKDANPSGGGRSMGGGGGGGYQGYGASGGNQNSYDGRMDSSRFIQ

[5] = target: T4, PK20770.1 (Cannabis sativa) (UniProt A0A7J6HVT3)
T4 sequence: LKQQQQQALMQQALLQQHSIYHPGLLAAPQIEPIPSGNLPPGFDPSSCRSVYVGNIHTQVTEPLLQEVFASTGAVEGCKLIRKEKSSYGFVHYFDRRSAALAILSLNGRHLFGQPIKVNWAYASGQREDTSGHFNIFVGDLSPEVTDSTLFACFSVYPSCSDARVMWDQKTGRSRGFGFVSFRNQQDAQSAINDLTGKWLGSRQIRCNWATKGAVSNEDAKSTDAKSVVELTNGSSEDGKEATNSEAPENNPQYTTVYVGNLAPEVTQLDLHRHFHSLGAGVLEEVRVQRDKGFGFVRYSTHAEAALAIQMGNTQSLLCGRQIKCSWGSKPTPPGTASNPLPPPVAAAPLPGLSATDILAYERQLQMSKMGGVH

[6] = target: PGTG_00837 (Puccinia graminis) (UniProt E3JTY5)
[7] = target: T5, UBA2B (Arabidopsis thaliana) (UniProt O80678)
T5 sequence: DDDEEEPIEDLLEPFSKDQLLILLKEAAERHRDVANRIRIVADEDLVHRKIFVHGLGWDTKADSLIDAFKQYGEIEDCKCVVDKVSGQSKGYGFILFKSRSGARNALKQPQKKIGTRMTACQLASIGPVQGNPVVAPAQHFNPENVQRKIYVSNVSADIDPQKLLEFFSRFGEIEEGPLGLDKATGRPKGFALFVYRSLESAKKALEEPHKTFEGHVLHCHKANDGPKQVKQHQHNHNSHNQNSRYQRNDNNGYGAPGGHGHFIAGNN

[8] = target: T6, C44B7.2 (Caenorhabditis elegans) (UniProt Q95QR5)
T6 sequence: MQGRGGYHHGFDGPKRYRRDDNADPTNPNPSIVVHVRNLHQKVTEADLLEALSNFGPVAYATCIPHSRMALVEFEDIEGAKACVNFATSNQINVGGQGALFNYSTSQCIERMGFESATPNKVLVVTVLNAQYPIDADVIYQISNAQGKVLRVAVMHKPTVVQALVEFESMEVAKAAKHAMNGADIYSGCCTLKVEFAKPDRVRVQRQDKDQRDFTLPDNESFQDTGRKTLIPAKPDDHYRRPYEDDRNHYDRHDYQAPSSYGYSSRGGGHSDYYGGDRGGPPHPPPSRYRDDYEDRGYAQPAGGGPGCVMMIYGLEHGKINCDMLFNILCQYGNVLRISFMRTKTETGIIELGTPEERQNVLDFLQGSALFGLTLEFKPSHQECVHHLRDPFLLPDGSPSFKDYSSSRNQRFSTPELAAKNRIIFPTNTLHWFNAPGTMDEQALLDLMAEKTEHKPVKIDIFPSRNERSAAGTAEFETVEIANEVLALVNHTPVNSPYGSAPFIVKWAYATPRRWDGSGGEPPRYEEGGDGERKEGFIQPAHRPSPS

Sequence of fmr1 (Xenopus tropicalis) (Q6GLC9 170-401): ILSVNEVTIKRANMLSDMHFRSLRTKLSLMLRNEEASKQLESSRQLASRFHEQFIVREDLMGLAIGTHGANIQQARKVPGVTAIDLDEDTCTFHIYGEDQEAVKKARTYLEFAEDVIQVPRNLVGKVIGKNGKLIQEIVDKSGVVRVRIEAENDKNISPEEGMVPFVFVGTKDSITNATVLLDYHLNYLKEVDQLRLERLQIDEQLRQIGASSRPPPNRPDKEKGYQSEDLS

AACCAAA [RNAcompete motif RNCMPT00460]
binding signal (z-score (mean of top ten 7-mers)) [1]: 8.43

ACUAACA [RNAcompete motif RNCMPT00467]
binding signal (z-score (mean of top ten 7-mers)) [2]: 10.4

AAGACAA [RNAcompete motif RNCMPT00474]
binding signal (z-score (mean of top ten 7-mers)) [3]: 6.01

GUAGGAA [RNAcompete motif RNCMPT00462]
binding signal (z-score (mean of top ten 7-mers)) [4]: 10.4

UUUUUU [RNAcompete motif RNCMPT00464]
binding signal (z-score (mean of top ten 7-mers)) [5]: 14.6

GGUGGA [RNAcompete motif RNCMPT00476]
binding signal (z-score (mean of top ten 7-mers)) [6]: 6.99

UUUUU [RNAcompete motif RNCMPT00475]
binding signal (z-score (mean of top ten 7-mers)) [7]: 10.7

AACANA [RNAcompete motif RNCMPT00468]
binding signal (z-score (mean of top ten 7-mers)) [8]: 8.36
